Assay results reported in publication PMC12288907 (JCI Insight, 2025).

B1: recombinant H7-235 IgG1 (rH7-235 IgG1) (antibody, V domains shown)
VH: QVQLVESGGGVVQPGESLRLSCAASGFAFRTYGMHWVRQAPGKGLEWVGVIWYDGSNKYYGDSVKGRFTISRDNSQNTLYLQMNSLRAEDTAVYYCARNGERWRVEDYYYGMDVWGQGTLVTVSS
VL: EIVMTQSPLSLPVTPGEPASISCRSSQSLLHSNAHNYLDWYLQKPGQSPQLLIYLGSNRASGVPDRFSGSGSGTDFTLKISRVEAEDVGIYYCMQALQTPITFGQGTRLEIK
notes: IgG1; also called rH7-235 mAb; mAb H7-235; copies: 2 + 2
B2: rH7-235 IgG1 (recombinant human monoclonal antibody H7-235) (antibody, V domains shown)
VH: QVQLVESGGGVVQPGESLRLSCAASGFAFRTYGMHWVRQAPGKGLEWVGVIWYDGSNKYYGDSVKGRFTISRDNSQNTLYLQMNSLRAEDTAVYYCARNGERWRVEDYYYGMDVWGQGTLVTVSS
VL: EIVMTQSPLSLPVTPGEPASISCRSSQSLLHSNAHNYLDWYLQKPGQSPQLLIYLGSNRASGVPDRFSGSGSGTDFTLKISRVEAEDVGIYYCMQALQTPITFGQGTRLEIK
notes: also called mAb H7-235; source: Expi293F, transient transfection, purified (MabSelect Sure)
B3: rH7-235rev IgG1 (germline revertant form of rH7-235 IgG) (antibody, V domains shown)
VH: QVQLVESGGGVVQPGRSLRLSCAASGFTFSSYGMHWVRQAPGKGLEWVAVIWYDGSNKYYADSVKGRFTISRDNSKNTLYLQMNSLRAEDTAVYYCARNGERWRVEDYYYGMDVWGQGTLVTVSS
VL: not shown

What was measured:
[1] = molecular target: recombinant soluble trimeric H3 HA of A/Hong Kong/1/1968 H3N2 (HK68 H3) (Influenza A virus A/Hong Kong/1/1968 …, UniProt Q91MA7); experiment: ELISA; settings: both partners purified
Chain of recombinant soluble trimeric H3 HA of A/Hong Kong/1/1968 H3N2 (HK68 H3) (Q91MA7 17-530): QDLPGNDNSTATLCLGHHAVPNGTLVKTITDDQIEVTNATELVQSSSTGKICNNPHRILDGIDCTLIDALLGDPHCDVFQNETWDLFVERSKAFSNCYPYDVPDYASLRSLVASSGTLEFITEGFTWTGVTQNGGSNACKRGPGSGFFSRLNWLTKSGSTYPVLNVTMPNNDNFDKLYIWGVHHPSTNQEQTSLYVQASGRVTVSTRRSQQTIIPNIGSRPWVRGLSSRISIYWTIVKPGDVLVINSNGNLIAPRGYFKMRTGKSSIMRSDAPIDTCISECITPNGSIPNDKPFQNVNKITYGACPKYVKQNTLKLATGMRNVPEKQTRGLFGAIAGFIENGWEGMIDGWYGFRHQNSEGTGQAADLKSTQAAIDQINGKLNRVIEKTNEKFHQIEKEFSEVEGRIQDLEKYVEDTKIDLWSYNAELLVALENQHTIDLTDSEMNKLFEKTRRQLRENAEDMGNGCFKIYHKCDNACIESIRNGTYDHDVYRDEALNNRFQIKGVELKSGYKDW

[2] = molecular target: recombinant soluble trimeric H3 HA of A/Hong Kong/1/1968 H3N2 (Influenza A virus A/Hong Kong/1/1968 …, UniProt Q91MA7); experiment: ELISA; settings: both partners purified
Chain of recombinant soluble trimeric H3 HA of A/Hong Kong/1/1968 H3N2 (Q91MA7 17-530): as above

Row | Binder | binding result [1] | binding result [2]
1 | B1 | no binding | –
2 | B2 | – | no binding (tested: >10,000 ng/mL)
3 | B3 | – | no binding (tested: >10,000 ng/mL)
